First the molecules themselves.
B1: unnamed (protein)
chain: MRPPQCLLHTPSLASPLLLLLLWLLGGGVGAEGREDAELLVTVRGGRLRGIRLKTPGGPVSAFLGIPFAEPPMGPRRFLPPEPKQPWSGVVDATTFQSVCYQYVDTLYPGFEGTEMWNPNRELSEDCLYLNVWTPYPRPTSPTPVLVWIYGGGFYSGASSLDVYDGRFLVQAERTVLVSMNYRVGAFGFLALPGSREAPGNVGLLDQRLALQWVQENVAAFGGDPTSVTLFGESAGAASVGMHLLSPPSRGLFHRAVLQSGAPNGPWATVGMGEARRRATQLAHLVGCPPGGTGGNDTELVACLRTRPAQVLVNHEAHVLPQESVFRFSFVPVVDGDFLSDTPEALINAGDFHGLQVLVGVVKDEGSYFLVYGAPGFSKDNESLISRAEFLAGVRVGVPQVSDLAAEAVVLHYTDWLHPEDPARLREALSDVVGDHNVVCPVAQLAGRLAAQGARVYAYVFEHRASTLSWPLWMGVPHGYEIEFIFGIPLDPSRNYTAEEKIFAQRLMRYWANFARTGDPNEPRDPKAPQWPPYTAGAQQYVSLDLRPLEVRRGLRAQACAFWNRFLPKLLSATDTLDEAERQWKAEFHRWSSYMVHWKNQFDHYSKQDRCSDL
B2: unnamed (protein)
chain: MRPPQCLLHTPSLASPLLLLLLWLLGGGVGAEGREDAELLVTVRGGRLRGIRLKTPGGPVSAFLGIPFAEPPMGPRRFLPPEPKQPWSGVVDATTFQSVCYQAVDTLYPGFEGTEMWNPNRELSEDCLYLNVWTPYPRPTSPTPVLVWIYGGGFYSGASSLDVYDGRFLVQAERTVLVSMNYRVGAFGFLALPGSREAPGNVGLLDQRLALQWVQENVAAFGGDPTSVTLFGESAGAASVGMHLLSPPSRGLFHRAVLQSGAPNGPWATVGMGEARRRATQLAHLVGCPPGGTGGNDTELVACLRTRPAQVLVNHAWHVLPQESVFRFSFVPVVDGDFLSDTPEALINAGDFHGLQVLVGVVKDEGSYFLVYGAPGFSKDNESLISRAEFLAGVRVGVPQVSDLAAEAVVLHYTDWLHPEDPARLREALSDVVGDHNVVCPVAQLAGRLAAQGARVYAYVFEHRASTLSWPLWMGVPHGYEIEFIFGIPLDPSRNYTAEEKIFAQRLMRYWANFARTGDPNEPRDPKAPQWPPYTAGAQQYVSLDLRPLEVRRGLRAQACAFWNRFLPKLLSATDTLDEAERQWKAEFHRWSSYMVHWKNQFDHYSKQDRCSDL
B3: unnamed (protein)
chain: MRPPQCLLHTPSLASPLLLLLLWLLGGGVGAEGREDAELLVTVRGGRLRGIRLKTPGGPVSAFLGIPFAEPPMGPRRFLPPEPKQPWSGVVDATTFQSVCYQAVDTLYPGFEGTEMWNPNRELSEDCLYLNVWTPYPRPTSPTPVLVWIYGGGFASGASSLDVYDGRFLVQAERTVLVSMNYRVGAFGFLALPGSREAPGNVGLLDQRLALQWVQENVAAFGGDPTSVTLFGESAGAASVGMHLLSPPSRGLFHRAVLQSGAPNGPWATVGMGEARRRATQLAHLVGCPPGGTGGNDTELVACLRTRPAQVLVNHEWHVLPQESVFRFSFVPVVDGDFLSDTPEALINAGDFHGLQVLVGVVKDEGSYFLVYGAPGFSKDNESLISRAEFLAGVRVGVPQVSDLAAEAVVLHYTDWLHPEDPARLREALSDVVGDHNVVCPVAQLAGRLAAQGARVYAYVFEHRASTLSWPLWMGVPHGYEIEFIFGIPLDPSRNYTAEEKIFAQRLMRYWANFARTGDPNEPRDPKAPQWPPYTAGAQQYVSLDLRPLEVRRGLRAQACAFWNRFLPKLLSATDTLDEAERQWKAEFHRWSSYMVHWKNQFDHYSKQDRCSDL
B4: unnamed (protein)
chain: MRPPQCLLHTPSLASPLLLLLLWLLGGGVGAEGREDAELLVTVRGGRLRGIRLKTPGGPVSAFLGIPFAEPPMGPRRFLPPEPKQPWSGVVDATTFQSVCYQYVDTLYPGFEGTEMWNPNRELSEDCLYLNVWTPYPRPTSPTPVLVWIYGGGFYSGASSLDVYDGRFLVQAERTVLVSMNYRVGAFGFLALPGSREAPGNVGLLDQRLALQWVQENVAAFGGDPTSVTLFGESAGAASVGMHLLSPPSRGLFHRAVLQSGAPNGPWATVGMGEARRRATQLAHLVGCPPGGTGGNDTELVACLRTRPAQVLVNHEWHVLPQESVFRFSFVPVVDGDFLSDTPEALINAGDFHGLQVLVGVVKDEGSAFLVYGAPGFSKDNESLISRAEFLAGVRVGVPQVSDLAAEAVVLHYTDWLHPEDPARLREALSDVVGDHNVVCPVAQLAGRLAAQGARVYAYVFEHRASTLSWPLWMGVPHGYEIEFIFGIPLDPSRNYTAEEKIFAQRLMRYWANFARTGDPNEPRDPKAPQWPPYTAGAQQYVSLDLRPLEVRRGLRAQACAFWNRFLPKLLSATDTLDEAERQWKAEFHRWSSYMVHWKNQFDHYSKQDRCSDL
B5: unnamed (protein)
chain: MRPPQCLLHTPSLASPLLLLLLWLLGGGVGAEGREDAELLVTVRGGRLRGIRLKTPGGPVSAFLGIPFAEPPMGPRRFLPPEPKQPWSGVVDATTFQSVCYQAVDTLYPGFEGTEMWNPNRELSEDCLYLNVWTPYPRPTSPTPVLVWIYGGGFYSGASSLDVYDGRFLVQAERTVLVSMNYRVGAFGFLALPGSREAPGNVGLLDQRLALQWVQENVAAFGGDPTSVTLFGESAGAASVGMHLLSPPSRGLFHRAVLQSGAPNGPWATVGMGEARRRATQLAHLVGCPPGGTGGNDTELVACLRTRPAQVLVNHAAHVLPQESVFRFSFVPVVDGDFLSDTPEALINAGDFHGLQVLVGVVKDEGSYFLVYGAPGFSKDNESLISRAEFLAGVRVGVPQVSDLAAEAVVLHYTDWLHPEDPARLREALSDVVGDHNVVCPVAQLAGRLAAQGARVYAYVFEHRASTLSWPLWMGVPHGYEIEFIFGIPLDPSRNYTAEEKIFAQRLMRYWANFARTGDPNEPRDPKAPQWPPYTAGAQQYVSLDLRPLEVRRGLRAQACAFWNRFLPKLLSATDTLDEAERQWKAEFHRWSSYMVHWKNQFDHYSKQDRCSDL
B6: unnamed (protein)
chain: MRPPQCLLHTPSLASPLLLLLLWLLGGGVGAEGREDAELLVTVRGGRLRGIRLKTPGGPVSAFLGIPFAEPPMGPRRFLPPEPKQPWSGVVDATTFQSVCYQYVDTLYPGFEGTEMANPNRELSEDCLYLNVWTPYPRPTSPTPVLVWIYGGGFYSGASSLDVYDGRFLVQAERTVLVSMNYRVGAFGFLALPGSREAPGNVGLLDQRLALQWVQENVAAFGGDPTSVTLFGESAGAASVGMHLLSPPSRGLFHRAVLQSGAPNGPWATVGMGEARRRATQLAHLVGCPPGGTGGNDTELVACLRTRPAQVLVNHEWHVLPQESVFRFSFVPVVDGDFLSDTPEALINAGDFHGLQVLVGVVKDEGSYFLVYGAPGFSKDNESLISRAEFLAGVRVGVPQVSDLAAEAVVLHYTDWLHPEDPARLREALSDVVGDHNVVCPVAQLAGRLAAQGARVYAYVFEHRASTLSWPLWMGVPHGYEIEFIFGIPLDPSRNYTAEEKIFAQRLMRYWANFARTGDPNEPRDPKAPQWPPYTAGAQQYVSLDLRPLEVRRGLRAQACAFWNRFLPKLLSATDTLDEAERQWKAEFHRWSSYMVHWKNQFDHYSKQDRCSDL
B7: unnamed (protein)
chain: MRPPQCLLHTPSLASPLLLLLLWLLGGGVGAEGREDAELLVTVRGGRLRGIRLKTPGGPVSAFLGIPFAEPPMGPRRFLPPEPKQPWSGVVDATTFQSVCYQYVDTLYPGFEGTEMWNPNRELSEDCLYLNVWTPYPRPTSPTPVLVWIYGGGFYSGASSLDVYDGRFLVQAERTVLVSMNYRVGAFGFLALPGSREAPGNVGLLDQRLALQWVQENVAAFGGDPTSVTLFGESAGAASVGMHLLSPPSRGLFHRAVLQSGAPNGPWATVGMGEARRRATQLAHLVGCPPGGTGGNDTELVACLRTRPAQVLVNHAWHVLPQESVFRFSFVPVVDGDFLSDTPEALINAGDFHGLQVLVGVVKDEGSYFLVYGAPGFSKDNESLISRAEFLAGVRVGVPQVSDLAAEAVVLHYTDWLHPEDPARLREALSDVVGDHNVVCPVAQLAGRLAAQGARVYAYVFEHRASTLSWPLWMGVPHGYEIEFIFGIPLDPSRNYTAEEKIFAQRLMRYWANFARTGDPNEPRDPKAPQWPPYTAGAQQYVSLDLRPLEVRRGLRAQACAFWNRFLPKLLSATDTLDEAERQWKAEFHRWSSYMVHWKNQFDHYSKQDRCSDL
B8: unnamed (protein)
chain: MRPPQCLLHTPSLASPLLLLLLWLLGGGVGAEGREDAELLVTVRGGRLRGIRLKTPGGPVSAFLGIPFAEPPMGPRRFLPPEPKQPWSGVVDATTFQSVCYQYVDTLYPGFEGTEMWNPNRELSEDCLYLNVWTPYPRPTSPTPVLVWIYGGGFYSGASSLDVYDGRFLVQAERTVLVSMNYRVGAFGFLALPGSREAPGNVGLLDQRLALQWVQENVAAFGGDPTSVTLFGESAGAASVGMHLLSPPSRGLFHRAVLQSGAPNGPWATVGMGEARRRATQLAHLVGCPPGGTGGNDTELVACLRTRPAQVLVNHEWHVLPQESVFRFSFVPVVDGDFLSDTPEALINAGDFHGLQVLVGVVKDEGSFFLVYGAPGFSKDNESLISRAEFLAGVRVGVPQVSDLAAEAVVLHYTDWLHPEDPARLREALSDVVGDHNVVCPVAQLAGRLAAQGARVYAYVFEHRASTLSWPLWMGVPHGYEIEFIFGIPLDPSRNYTAEEKIFAQRLMRYWANFARTGDPNEPRDPKAPQWPPYTAGAQQYVSLDLRPLEVRRGLRAQACAFWNRFLPKLLSATDTLDEAERQWKAEFHRWSSYMVHWKNQFDHYSKQDRCSDL

By Km is commonly meant the concentration of substrate that gives half-maximal velocity. What is called kcat is the maximal rate divided by the concentration of active sites. As usually defined, the kcat/Km is the second-order rate constant that governs catalysis at low substrate concentration.

Substrate in the data set: Acetylcholine
The settings on record: pH 8; 27 °C.
Turning to B1, the Km is 200 µM, the kcat was 5330 s⁻¹ and the kcat/Km came to 2.67e+07 M⁻¹ s⁻¹.

Turning to B2, the Km worked out at 240 µM, the turnover number (kcat) was 6670 s⁻¹ and the kcat/Km is 2.78e+07 M⁻¹ s⁻¹.

As for B3, the Michaelis constant (Km) is 70 µM, the catalytic constant (kcat) was 4170 s⁻¹ and the kcat/Km is 5.95e+07 M⁻¹ s⁻¹.

Regarding B4, the Km is 100 µM, the kcat came to 1670 s⁻¹ and the kcat/Km stood at 1.67e+07 M⁻¹ s⁻¹.

Consider B5, for which the Km was determined as 300 µM, the catalytic constant (kcat) was determined as 3330 s⁻¹ and the kcat/Km turned out to be 1.11e+07 M⁻¹ s⁻¹.

With B6, the Km is 93000 µM, the kcat is 1330 s⁻¹ and the kcat/Km was determined as 14300 M⁻¹ s⁻¹.

As to B7, the Km was determined as 280 µM, the kcat turned out to be 6330 s⁻¹ and the kcat/Km was found to be 2.26e+07 M⁻¹ s⁻¹.

Take B8: the Km was determined as 160 µM, the kcat came out at 6670 s⁻¹ and the kcat/Km was 4.17e+07 M⁻¹ s⁻¹.

(Values after the PETadex activity labels (doi:10.1016/s0021-9258(17)37371-4).)
